The values that follow come from article PMC8034623.

Holding throughout (assay): EMSA
For orientation: In EMSA bound probe runs differently from free probe, usually more slowly.

Series [1] addresses T1, LuxR R9A (Vibrio alginolyticus, UniProt B4X9Q4 1-204, R9A).
T1 sequence: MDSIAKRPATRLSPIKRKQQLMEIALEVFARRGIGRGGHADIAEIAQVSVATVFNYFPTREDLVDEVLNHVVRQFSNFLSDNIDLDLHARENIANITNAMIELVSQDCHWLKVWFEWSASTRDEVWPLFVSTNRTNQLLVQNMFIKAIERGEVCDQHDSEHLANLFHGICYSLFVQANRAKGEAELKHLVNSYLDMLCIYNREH

Series [2] has as its target T2, LuxR R9/11A (Vibrio alginolyticus, UniProt B4X9Q4 1-204, R9A;R11A).
T2 sequence: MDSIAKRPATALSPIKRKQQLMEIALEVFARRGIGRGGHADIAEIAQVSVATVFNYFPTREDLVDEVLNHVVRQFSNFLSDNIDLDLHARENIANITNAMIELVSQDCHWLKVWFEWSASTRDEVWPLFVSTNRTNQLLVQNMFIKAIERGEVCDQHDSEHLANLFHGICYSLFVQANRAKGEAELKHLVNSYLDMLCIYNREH

Series [3] deals with T3, LuxR K16A (Vibrio alginolyticus, UniProt B4X9Q4 1-204, K16A).
T3 sequence: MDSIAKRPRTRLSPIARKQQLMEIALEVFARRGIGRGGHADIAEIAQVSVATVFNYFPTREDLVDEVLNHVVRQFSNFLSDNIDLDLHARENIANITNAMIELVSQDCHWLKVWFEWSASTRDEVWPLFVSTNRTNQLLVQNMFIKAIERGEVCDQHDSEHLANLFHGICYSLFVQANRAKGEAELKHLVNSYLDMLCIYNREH

Series [4] has as its target T4, LuxR R11A (Vibrio alginolyticus, UniProt B4X9Q4 1-204, R11A).
T4 sequence: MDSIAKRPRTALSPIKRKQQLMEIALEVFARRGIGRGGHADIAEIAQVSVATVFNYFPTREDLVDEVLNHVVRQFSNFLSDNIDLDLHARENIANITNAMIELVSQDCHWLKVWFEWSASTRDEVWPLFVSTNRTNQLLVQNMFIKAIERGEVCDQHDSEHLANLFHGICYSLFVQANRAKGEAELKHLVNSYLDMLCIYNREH

The target of series [5] is T5, LuxR ΔLuxR-arm (Vibrio alginolyticus, UniProt B4X9Q4 12-204, del2-11).
T5 sequence: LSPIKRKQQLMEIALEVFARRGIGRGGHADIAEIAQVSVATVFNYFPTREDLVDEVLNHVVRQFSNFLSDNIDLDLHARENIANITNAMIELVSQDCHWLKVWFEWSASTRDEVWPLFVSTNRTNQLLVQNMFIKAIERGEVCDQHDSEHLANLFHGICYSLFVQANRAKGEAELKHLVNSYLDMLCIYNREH

Series [6] concerns the target T6, LuxR (Vibrio alginolyticus, UniProt B4X9Q4 1-204).
T6 sequence: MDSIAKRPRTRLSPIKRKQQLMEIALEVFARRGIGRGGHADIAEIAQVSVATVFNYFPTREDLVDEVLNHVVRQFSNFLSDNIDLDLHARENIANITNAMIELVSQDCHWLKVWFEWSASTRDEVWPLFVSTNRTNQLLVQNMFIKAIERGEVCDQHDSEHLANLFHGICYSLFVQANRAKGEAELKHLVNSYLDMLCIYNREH

In series [7] the target is T6, LuxR. This is another data set of the same source.
The target of series [8] is T6, LuxR. The source holds these as a separate data set.

Read-outs that look alike come from different tables or passages of the source.

B1: actDNA 51-bp probe (dsDNA)
DNA 1: CTAAATTTATCAATAATAATGACATTACTGTATATAAATTGTTCTACAGAT
DNA 2: ATCTGTAGAACAATTTATATACAGTAATGTCATTATTATTGATAAATTTAG
As to B1, the dissociation constant (Kd) (as a rule, a measure of binding affinity in units of concentration) was found to be 698 nM in series [1], 329 nM in series [3] and 449 nM in series [6]. The binding result in series [2], in series [4] and in series [5] was “no binding” in each case.

B2: AM6 (A4T) (dsDNA)
DNA 1: CTAAATTTATCAATAATATTGACATTACTGTATATAAATTGTTCTACAGAT
DNA 2: ATCTGTAGAACAATTTATATACAGTAATGTCAATATTATTGATAAATTTAG
Regarding B2, in series [7], the binding result is listed as “binds”.

B3: AM3 (T18A) (dsDNA)
DNA 1: CTAAATTTATCAATAATAATGACATTACTGTAAATAAATTGTTCTACAGAT
DNA 2: ATCTGTAGAACAATTTATTTACAGTAATGTCATTATTATTGATAAATTTAG
Regarding B3, in series [8], the binding result is on record as “binds”.

B4: AM7 (A3C) (dsDNA)
DNA 1: CTAAATTTATCAATAATCATGACATTACTGTATATAAATTGTTCTACAGAT
DNA 2: ATCTGTAGAACAATTTATATACAGTAATGTCATGATTATTGATAAATTTAG
Molecule B4 yielded a Kd in series [6] of 636 nM.

B5: AM5 (A1T, A4T, A22T) (dsDNA)
DNA 1: CTAAATTTATCAATATTATTGACATTACTGTATATATATTGTTCTACAGAT
DNA 2: ATCTGTAGAACAATATATATACAGTAATGTCAATAATATTGATAAATTTAG
Take B5: in series [7], the binding result is recorded as “binds”.

B6: AM4 (A17C, T18A) (dsDNA)
DNA 1: CTAAATTTATCAATAATAATGACATTACTGTCAATAAATTGTTCTACAGAT
DNA 2: ATCTGTAGAACAATTTATTGACAGTAATGTCATTATTATTGATAAATTTAG
Regarding B6, the binding result in series [8] is reported as “binds”.

B7: AM2 (A4T, T18A) (dsDNA)
DNA 1: CTAAATTTATCAATAATATTGACATTACTGTAAATAAATTGTTCTACAGAT
DNA 2: ATCTGTAGAACAATTTATTTACAGTAATGTCAATATTATTGATAAATTTAG
For the molecule B7, the binding result in series [8] was “binds”.

B8: AM1 (T2A) (dsDNA)
DNA 1: CTAAATTTATCAATAAAAATGACATTACTGTATATAAATTGTTCTACAGAT
DNA 2: ATCTGTAGAACAATTTATATACAGTAATGTCATTTTTATTGATAAATTTAG
B8 returned a Kd in series [6] of 1690 nM.

B9: repDNA 51-bp probe (dsDNA)
DNA 1: CTAAATTTATCAATATTATTGATAAAATTATCAATATATTGTTCTACAGAT
DNA 2: ATCTGTAGAACAATATATTGATAATTTTATCAATAATATTGATAAATTTAG
As to B9, the results for the dissociation constant Kd in series [1], in series [4] and in series [6] were 434 nM, 1060 nM and 157 nM, respectively.

B10: GC-rich control 51-bp (dsDNA)
DNA 1: CTAAATTTATCAATACCGCGTCACGGAGGGGTGCGCCATTGTTCTACAGAT
DNA 2: ATCTGTAGAACAATGGCGCACCCCTCCGTGACGCGGTATTGATAAATTTAG
B10: the binding result in series [6] is “no binding”.
